{
  "source": "patent US20250263481A1",
  "binders": {"B1": {"name": "YL-G2-B (antibody, human IgG1, kappa)", "heavy": "EVQLQQSGPELEKPGASVKISCKASGYSFTGYKMNWVKQSNGKSLEWIGNIDPYYGGTTYNQKFKGKATLTVDKSSSTAYMQLKSLTSEDSAVYYCARYGKGNTMDYWGQGTSVTVSSASTKGPSVFPLAPSSKSTSGGTAALGCLVKDYFPEPVTVSWNSGALTSGVHTFPAVLQSSGLYSLSSVVTVPSSSLGTQTYICNVNHKPSNTKVDKRVEPKSCDKTHTCPPCPAPELVGGPSVFLLPPKPKDTLMISRTPEVTCVVVDVSHEDPEVKFNWYVDGVEVHNAKTKPPEEQYNSTLRVVSVLTVLHQDWLNGKEYKCKVSNKALPAPIEKTISKAKGQPREPQVYTLPPSREEMTKNQVSLTCLVKGFYPSDIAVEWESNGQPENNYKTTPLVLDSDGSFFLYSKLTVDKSRWQQGNVFSCSVMHEALHNHYTQKSLSLSPGK", "light": "DIVMTQSPSSLTVTAGEKVTMSCKSSQSLLNSGNQKNYLTWYQQRPGQPPKLLIYWASTRESGVPVRFTGSGSGTDFTLTISSVQAEDLAVYYCQNAYIYPLTFGTGTKLELKRTVAAPSVFIFPPSDEQLKSGTASVVCLLNNFYPREAKVQWKVDNALQSGNSQESVTEQDSKDSTYSLSSTLTLSKADYEKHKVYACEVTHQGLSSPVTKSFNRGEC"}, "B2": {"name": "YL-G2-D (antibody, human IgG1, kappa)", "heavy": "QLQQSGPELEKPGASVKISCKASGYSFTGYKMNWVKQSNGESLEWIGNIDPYYGDTTYTQKFKGKATFTVDTSSSTAYMQLKSLTSEDSAVYFCARYNRGNTMDYWGQGTSVTVSSASTKGPSVFPLAPSSKSTSGGTAALGCLVKDYFPEPVTVSWNSGALTSGVHTFPAVLQSSGLYSLSSVVTVPSSSLGTQTYICNVNHKPSNTKVDKRVEPKSCDKTHTCPPCPAPELVGGPSVFLLPPKPKDTLMISRTPEVTCVVVDVSHEDPEVKFNWYVDGVEVHNAKTKPPEEQYNSTLRVVSVLTVLHQDWLNGKEYKCKVSNKALPAPIEKTISKAKGQPREPQVYTLPPSREEMTKNQVSLTCLVKGFYPSDIAVEWESNGQPENNYKTTPLVLDSDGSFFLYSKLTVDKSRWQQGNVFSCSVMHEALHNHYTQKSLSLSPGK", "light": "B1 light with M21L, T75A, Y93F, I99F, K113R"}, "B3": {"name": "YL-G2-C (antibody, human IgG1, kappa)", "heavy": "QIQLVQSGPELRKPGETVKISCKASGFPFTTDGMSWVKQAPGKGLKWMGWINTYSGVPTYADDFKGRVAFSLETSASTAYLQIKNLKNEDTATYFCARFRRGNALDNWGQGTSVTVSSASTKGPSVFPLAPSSKSTSGGTAALGCLVKDYFPEPVTVSWNSGALTSGVHTFPAVLQSSGLYSLSSVVTVPSSSLGTQTYICNVNHKPSNTKVDKRVEPKSCDKTHTCPPCPAPELVGGPSVFLLPPKPKDTLMISRTPEVTCVVVDVSHEDPEVKFNWYVDGVEVHNAKTKPPEEQYNSTLRVVSVLTVLHQDWLNGKEYKCKVSNKALPAPIEKTISKAKGQPREPQVYTLPPSREEMTKNQVSLTCLVKGFYPSDIAVEWESNGQPENNYKTTPLVLDSDGSFFLYSKLTVDKSRWQQGNVFSCSVMHEALHNHYTQKSLSLSPGK", "light": "B1 light with R45K, V66D, V91I, A97N, I99F, T106A, K109R"}, "B4": {"name": "reference mAb (IMAB362, Ganymed) (antibody, INN chains, looked up, V domains shown)", "VH": "QVQLQQPGAELVRPGASVKLSCKASGYTFTSYWINWVKQRPGQGLEWIGNIYPSDSYTNYNQKFKDKATLTVDKSSSTAYMQLSSPTSEDSAVYYCTRSWRGNSFDYWGQGTTLTVSS", "VL": "DIVMTQSPSSLTVTAGEKVTMSCKSSQSLLNSGNQKNYLTWYQQKPGQPPKLLIYWASTRESGVPDRFTGSGSGTDFTLTISSVQAEDLAVYYCQNDYSYPFTFGSGTKLEIKR"}},
  "key": {"[1]": {"molecular_target": "recombinant huCLDN18.2-Fc (human)", "assay": "KinExA 4000, equilibrium in solution, antibody constant, huCLDN18.2-Fc titrated"}, "[2]": {"molecular_target": "His-tagged human Claudin-18.2 (human)", "assay": "SPR, Biacore 8K, antibody captured by anti-human IgG (Fc), His-tagged human Claudin-18.2 as analyte"}, "[3]": {"molecular_target": "human CLDN18.2 expressed on cells (human)", "assay": "cell-based or functional assay"}, "[4]": {"molecular_target": "human CLDN18.2 expressed on cells (human)", "assay": "flow cytometry (geometric mean, Alexa Fluor 647 anti-human IgG Fc secondary) on CLDN18.2-expressing 293T cells"}},
  "note": "Residue numbers refer to the chain shown, from its start.",
  "data": [
    {"binder": "B1", "values": [
      {"measurement": "Kd", "setting": "[1]", "result": 1.7, "unit": "nM"},
      {"measurement": "Kd", "setting": "[2]", "result": 2.05, "unit": "nM"},
      {"measurement": "koff", "setting": "[2]", "result": 0.0014, "unit": "s⁻¹"},
      {"measurement": "kon", "setting": "[2]", "result": 686000, "unit": "M⁻¹ s⁻¹"}
    ]},
    {"binder": "B2", "values": [
      {"measurement": "Kd", "setting": "[1]", "result": 6.4, "unit": "nM"},
      {"measurement": "Kd", "setting": "[2]", "result": 1.02, "unit": "nM"},
      {"measurement": "koff", "setting": "[2]", "result": 0.000722, "unit": "s⁻¹"},
      {"measurement": "kon", "setting": "[2]", "result": 707000, "unit": "M⁻¹ s⁻¹"}
    ]},
    {"binder": "B3", "values": [
      {"measurement": "Kd", "setting": "[1]", "result": 3.8, "unit": "nM"},
      {"measurement": "Kd", "setting": "[2]", "result": 1.11, "unit": "nM"},
      {"measurement": "koff", "setting": "[2]", "result": 0.000591, "unit": "s⁻¹"},
      {"measurement": "kon", "setting": "[2]", "result": 532000, "unit": "M⁻¹ s⁻¹"}
    ]},
    {"binder": "B4", "values": [
      {"measurement": "ADCC on KATOIII CLDN18.2 cells, LDH: EC50 (run A)", "setting": "[3]", "result": 0.12, "unit": "nM"},
      {"measurement": "ADCC on KATOIII CLDN18.2 cells, LDH: EC50 (run B)", "setting": "[3]", "result": 0.22, "unit": "nM"},
      {"measurement": "ADCC on KATOIII CLDN18.2 cells, LDH: EC50 (run C)", "setting": "[3]", "result": 0.27, "unit": "nM"},
      {"measurement": "ADCC on KATOIII CLDN18.2 cells, LDH: max (% cytotoxity) (run A)", "setting": "[3]", "result": 27.9, "unit": "%"},
      {"measurement": "ADCC on KATOIII CLDN18.2 cells, LDH: max (% cytotoxity) (run B)", "setting": "[3]", "result": 24.5, "unit": "%"},
      {"measurement": "ADCC on KATOIII CLDN18.2 cells, LDH: max (% cytotoxity) (run C)", "setting": "[3]", "result": 24.5, "unit": "%"},
      {"measurement": "ADCC on NCI-N87 CLDN18.2 cells, LDH: EC50 (run A)", "setting": "[3]", "result": 0.057, "unit": "nM"},
      {"measurement": "ADCC on NCI-N87 CLDN18.2 cells, LDH: EC50 (run B)", "setting": "[3]", "result": 0.082, "unit": "nM"},
      {"measurement": "ADCC on NCI-N87 CLDN18.2 cells, LDH: EC50 (run C)", "setting": "[3]", "result": 0.1, "unit": "nM"},
      {"measurement": "ADCC on NCI-N87 CLDN18.2 cells, LDH: max (% cytotoxity) (run A)", "setting": "[3]", "result": 26.1, "unit": "%"},
      {"measurement": "ADCC on NCI-N87 CLDN18.2 cells, LDH: max (% cytotoxity) (run B)", "setting": "[3]", "result": 22.1, "unit": "%"},
      {"measurement": "ADCC on NCI-N87 CLDN18.2 cells, LDH: max (% cytotoxity) (run C)", "setting": "[3]", "result": 21.1, "unit": "%"},
      {"measurement": "CDC on CT26 CLDN18.2 cells, LDH: EC50 (run A)", "setting": "[3]", "result": 11.5, "unit": "nM"},
      {"measurement": "CDC on CT26 CLDN18.2 cells, LDH: EC50 (run B)", "setting": "[3]", "result": 10.7, "unit": "nM"},
      {"measurement": "CDC on CT26 CLDN18.2 cells, LDH: EC50 (run C)", "setting": "[3]", "result": 11.9, "unit": "nM"},
      {"measurement": "CDC on CT26 CLDN18.2 cells, LDH: max (% cytotoxity) (run A)", "setting": "[3]", "result": 72.5, "unit": "%"},
      {"measurement": "CDC on CT26 CLDN18.2 cells, LDH: max (% cytotoxity) (run B)", "setting": "[3]", "result": 54.7, "unit": "%"},
      {"measurement": "CDC on CT26 CLDN18.2 cells, LDH: max (% cytotoxity) (run C)", "setting": "[3]", "result": 51.6, "unit": "%"},
      {"measurement": "CDC on KATOIII CLDN18.2 cells, LDH: EC50 (run A)", "setting": "[3]", "result": 38.1, "unit": "nM"},
      {"measurement": "CDC on KATOIII CLDN18.2 cells, LDH: EC50 (run B)", "setting": "[3]", "result": 22.7, "unit": "nM"},
      {"measurement": "CDC on KATOIII CLDN18.2 cells, LDH: EC50 (run C)", "setting": "[3]", "result": 27.5, "unit": "nM"},
      {"measurement": "CDC on KATOIII CLDN18.2 cells, LDH: max (% cytotoxity) (run A)", "setting": "[3]", "result": 29.7, "unit": "%"},
      {"measurement": "CDC on KATOIII CLDN18.2 cells, LDH: max (% cytotoxity) (run B)", "setting": "[3]", "result": 46, "unit": "%"},
      {"measurement": "CDC on KATOIII CLDN18.2 cells, LDH: max (% cytotoxity) (run C)", "setting": "[3]", "result": 34.9, "unit": "%"},
      {"measurement": "EC50 (read off the curve)", "setting": "[4]", "result": 0.8, "unit": "µg/mL"}
    ]}
  ]
}
